Changes are numbered by the printed parent chain. Each block holds one binder with its values, some of them ahead of it.
Experiments:
human IL-2Rβ [1] = target: T1, human IL-2Rβ (human, UniProt P14784 27-240, limits assumed); experiment: SPR, P.E. off-rate
T1 construct: recombinant protein, coated or immobilised; also called hu IL-2R; IL-2R beta
T1 sequence: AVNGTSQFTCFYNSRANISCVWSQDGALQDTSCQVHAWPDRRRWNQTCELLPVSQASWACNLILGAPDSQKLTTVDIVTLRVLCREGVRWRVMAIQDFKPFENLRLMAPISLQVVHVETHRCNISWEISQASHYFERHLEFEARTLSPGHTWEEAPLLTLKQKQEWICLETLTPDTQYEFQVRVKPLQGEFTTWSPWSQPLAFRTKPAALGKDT
Protocol: SPR was performed to determine dissociation rates using Biacore 3000 instrument (GE Healthcare). Briefly, human and mouse IL-2R proteins were immobilized on carboxylmethyl dextran sensor chip (CM5) at approximately 2500 RUs using amine coupling in acetate buffer (GE Healthcare). The VHH-containing P.E. were loaded with a flow rate of 30 uL/min and the off-rates were measured over a 120s period.

human IL-2Rβ [2] = target: T1, human IL-2Rβ; experiment: P.E. ELISA, coated protein
Protocol: In a binding ELISA, human or mouse IL-2Rα, IL-2Rβ and IL-2Rγ proteins were coated directly on maxisorp microtiter plates overnight at 4° C. Free binding sites were blocked using 4% Marvel in PBS for 1 hour. Next, 1:5 dilution of P.E. in 1% Marvel/PBS were added to wells and incubated for 1 hour. […] Binding specificity was determined based on O.D. at 450 nm values compared to negative controls.

koff (human IL-2Rβ [1]): 0.000363 s⁻¹
P.E. binding ELISA OD (human IL-2Rβ [2]): 1.03 OD450 nm
B1: FJ1427_P035MP06A07 (VHH)
VHH: QVQLQESGGGLVQAGGSLRLSCAASGDVFVRYTMAWFRQAPGKEREFVASVTDSGRTTEYVDSVKGRFTVSRDNAKNTAYLQMNNLKPEDTAIYYCAANTDYFQIRSLDLNTWGQGTQVTVSS
notes: soluble VHH in periplasmic extract; also called 26-MP06A07; clone nr

koff (human IL-2Rβ [1]): 0.000577 s⁻¹
P.E. binding ELISA OD (human IL-2Rβ [2]): 0.541 OD450 nm
B3: FJ1427_P035MP02E07 (VHH)
VHH: QVQLVESGGGLVQAGGSLGLACALSGDVFVRYTMAWFRQAPGKEREFVASVTDSGRTTDYVASVQGRFTVSRDNNKNTVYLQMNSLKPEDTAVYYCAANTDYFQIRSLDRNTWGQGTQVTVSS
notes: soluble VHH in periplasmic extract; also called clone nr

koff (human IL-2Rβ [1]): 0.000617 s⁻¹
P.E. binding ELISA OD (human IL-2Rβ [2]): 0.684 OD450 nm
B5: FJ1427 P035MP02F02 (VHH)
VHH: B3 VHH with Q1E, G19R
notes: soluble VHH in periplasmic extract; also called clone nr; 110

koff (human IL-2Rβ [1]): 0.00236 s⁻¹
P.E. binding ELISA OD (human IL-2Rβ [2]): 0.905 OD450 nm
B6: FJ1427 P035MP02D08 (VHH)
VHH: B1 VHH with Q1E, Q5V, A23V, A24V, A49T, V51I, A79V, I93V, Q104R, L110A
notes: as for B3

koff (human IL-2Rβ [1]): 0.000615 s⁻¹
P.E. binding ELISA OD (human IL-2Rβ [2]): 1.39 OD450 nm
B11: FJ1427_P035MP02E10 (VHH)
VHH: QVQLVESGGGLVQAGGSLRLSCAAAGRAIENYPVGWFRRAPGKEREFVAAITWISGSTLYADSVKGRFTISRDNAKNTVYLQMSSLKPEDTALYYCAAALKTITRGQNDYSYWGQGTQVTVSS
notes: as for B3

koff (human IL-2Rβ [1]): 0.000336 s⁻¹
P.E. binding ELISA OD (human IL-2Rβ [2]): 0.38 OD450 nm
B14: FJ1427 P035MP02B07 (VHH)
VHH: EVQLVESGGGLVEAGGSLRLSCAASGRAFNNFPMGWFRQAPGKEREFVAAITWISGSTLYADSVKGRFTISRDKSKNTVYLQMSGLKPEDTALYYCAAALKTITRGQHDYTYWGQGTQVTVSS
notes: as for B3

koff (human IL-2Rβ [1]): 0.00057 s⁻¹
P.E. binding ELISA OD (human IL-2Rβ [2]): 0.401 OD450 nm
B16: FJ1427_P035MP02C02 (VHH)
VHH: QVQLVESGGGLVQPGGSLRLSCAASGSRFVSDFMGWYRQVPGKQRELVADMADGGSARYGDSVKGRFTILRDNMNSTAFLQMSSLKPEDTGVYYCKAGLWIAGRHFDYWGQGTQVTVSS
notes: as for B3

koff (human IL-2Rβ [1]): 0.00333 s⁻¹
P.E. binding ELISA OD (human IL-2Rβ [2]): 0.254 OD450 nm
B18: FJ1427 P035MP02C08 (VHH)
VHH: EVQLVESGGGLVQAGGSLRLSCAASGSTFSRQPMYWFRQAPGKEREFVAAITWSGRGTLYADSVEGRFTISRDNAKNTVYLQMNSLRPDDTAAYYCAAGPYGDAAYRHGRIDSWGQGTQVTVSS
notes: as for B3

Further lines, the binder ahead of its results:

B2: FJ1427_P035MP02G07 (VHH)
VHH: B1 VHH with Q5V, A24V, I93V
notes: as for B3
koff (human IL-2Rβ [1]): 0.000259 s⁻¹
P.E. binding ELISA OD (human IL-2Rβ [2]): 0.636 OD450 nm

B4: FJ1427_P035MP02F09 (VHH)
VHH: B1 VHH with Q1E, Q5V, E59D, A79V, I93V, D109E, L110F
notes: as for B3
koff (human IL-2Rβ [1]): 0.00107 s⁻¹
P.E. binding ELISA OD (human IL-2Rβ [2]): 1.47 OD450 nm

B7: FJ1427_P035MP02G09 (VHH)
VHH: B1 VHH with Q5V, A23T, A24V, S50L, A79V, I93V, Q104R, L110A
notes: as for B3
koff (human IL-2Rβ [1]): 0.0011 s⁻¹
P.E. binding ELISA OD (human IL-2Rβ [2]): 0.527 OD450 nm

B8: FJ1427_P035MP02C10 (VHH)
VHH: B3 VHH with G19R
notes: as for B3
koff (human IL-2Rβ [1]): 0.000521 s⁻¹
P.E. binding ELISA OD (human IL-2Rβ [2]): 1.29 OD450 nm

B9: FJ1427_P035MP02A09 (VHH)
VHH: B1 VHH with Q5V, A24V, V64A, A79V, N85S, I93V, D109R, L110A
notes: as for B3
koff (human IL-2Rβ [1]): 0.000617 s⁻¹
P.E. binding ELISA OD (human IL-2Rβ [2]): 1.3 OD450 nm

B10: FJ1427_P035MP02B08 (VHH)
VHH: B11 VHH with Q1E, A25S, R39Q
notes: soluble VHH in periplasmic extract; also called 16-MP02B08; clone nr
koff (human IL-2Rβ [1]): 0.000141 s⁻¹
P.E. binding ELISA OD (human IL-2Rβ [2]): 1.38 OD450 nm

B12: FJ1427 P035MP02H09 (VHH)
VHH: B11 VHH with V2L, A14P
notes: as for B3
koff (human IL-2Rβ [1]): 0.000141 s⁻¹
P.E. binding ELISA OD (human IL-2Rβ [2]): 1.51 OD450 nm

B13: FJ1427_P035MP02B10 (VHH)
VHH: B14 VHH with E1Q
notes: soluble VHH in periplasmic extract; also called clone nr; 170
koff (human IL-2Rβ [1]): 0.000284 s⁻¹
P.E. binding ELISA OD (human IL-2Rβ [2]): 0.476 OD450 nm

B15: FJ1427_P035MP02B03 (VHH)
VHH: B16 VHH with P14T, N73S, M74G, F79Y
notes: as for B3
koff (human IL-2Rβ [1]): 0.000215 s⁻¹
P.E. binding ELISA OD (human IL-2Rβ [2]): 0.383 OD450 nm

B17: FJ1427_P035MP02F06 (VHH)
VHH: B16 VHH with Q1E, P14T, V30I, D72E, N73S, M74G, S76A, F79Y
notes: as for B3
koff (human IL-2Rβ [1]): 0.000203 s⁻¹
P.E. binding ELISA OD (human IL-2Rβ [2]): 0.214 OD450 nm

Reference: US20240409645A1 (DUALYX, published 2024)
